{"source": "patent US20200299413A1", "about": "(BIOMUNEX PHARMACEUTICALS, published 2020)", "molecular_target": "CD38 on RPMI-8226 multiple myeloma cells (UniProt P28907 1-300, limits assumed)", "experiment": "cell-based or functional assay"}
{"binder": "parental anti-CD38 mAb (daratumumab) (antibody, V domains shown) VH: EVQLLESGGGLVQPGGSLRLSCAVSGFTFNSFAMSWVRQAPGKGLEWVSAISGSGGGTYYADSVKGRFTISRDNSKNTLYLQMNSLRAEDTAVYFCAKDKILWFGEPVFDYWGQGTLVTVSS VL: not shown", "values": [{"measurement": "ADCC (51Chromium release) EC50 on RPMI-8226 cells, non-pre-activated MNC effectors", "value": 0.3, "unit": "nM"}]}
